# In patent US4446316A, “Dextran derivative of fibrinolysin” (Vsesojuzny Kardiologichesky Nauchny Tsentr, priority 1980, dated 1984):
# Entries after “also recorded” stand apart in the source; their conditions may differ.
# B1: Fibrinolysin derivative of the invention: fibrinolysin covalently bonded to dextran dialdehyde (molecular mass 20,000 to 110,000), reduced with sodium borohydride (conjugate, UniProt P00747 20-580; P00747 581-810, looked up)
# Plasmin heavy chain A: EPLDDYVNTQGASLFSVTKKQLGAGSIEECAAKCEEDEEFTCRAFQYHSKEQQCVIMAENRKSSIIIRMRDVVLFEKKVYLSECKTGNGKNYRGTMSKTKNGITCQKWSSTSPHRPRFSPATHPSEGLEENYCRNPDNDPQGPWCYTTDPEKRYDYCDILECEEECMHCSGENYDGKISKTMSGLECQAWDSQSPHAHGYIPSKFPNKNLKKNYCRNPDRELRPWCFTTDPNKRWELCDIPRCTTPPPSSGPTYQCLKGTGENYRGNVAVTVSGHTCQHWSAQTPHTHNRTPENFPCKNLDENYCRNPDGKRAPWCHTTNSQVRWEYCKIPSCDSSPVSTEQLAPTAPPELTPVVQDCYHGDGQSYRGTSSTTTTGKKCQSWSSMTPHRHQKTPENYPNAGLTMNYCRNPDADKGPWCFTTDPSVRWEYCNLKKCSGTEASVVAPPPVVLLPDVETPSEEDCMFGNGKGYRGKRATTVTGTPCQDWAAQEPHRHSIFTPETNPRAGLEKNYCRNPDGDVGGPWCYTTNPRKLYDYCDVPQCAAPSFDCGKPQVEPKKCPGR
# Plasmin light chain B: VVGGCVAHPHSWPWQVSLRTRFGMHFCGGTLISPEWVLTAAHCLEKSPRPSSYKVILGAHQEVNLEPHVQEIEVSRLFLEPTRKDIALLKLSSPAVITDKVIPACLPSPNYVVADRTECFITGWGETQGTFGAGLLKEAQLPVIENKVCNRYEFLNGRVQSTELCAGHLAGGTDSCQGDSGGPLVCFEKDKYILQGVTSWGLGCARPNKPGVYVRVSRFVTWIEGVMRNN
# modifications: Plasmin dextran dialdehyde conjugate, borohydride reduced
# notes: fibrinolysin covalently bonded to dextran dialdehyde (molecular mass 20,000 to 110,000), reduced with sodium borohydride
# B2: derivative of fibrinolysin with aldehyde-containing sephadex: fibrinolysin reacted with a modified aldehyde-containing sephadex in a phosphate buffer at 4° C. (conjugate, UniProt P00747 20-580; P00747 581-810, looked up)
# Plasmin heavy chain A: B1 Plasmin heavy chain A
# Plasmin light chain B: B1 Plasmin light chain B
# modifications: plasmin conjugated to aldehyde-containing Sephadex
# How the values were obtained:
# [1] = system: thromboses of a rabbit's jugular vein; test: Thrombolytic activity on model of thrombosis of rabbit's jugular vein (lysis of thrombus); format: in vivo; conditions: rabbits
# From the text: (§1) The study of the specific (thrombolytic) effect of the polysaccharide fibrinolysin derivative according to the present invention has been studied on models of thromboses of a rabbit's jugular vein and a dog's femoral vein or artery. Thrombi of 1 to 2.5 cm size were formed in the above-mentioned animals which fully obliterated the cross-section of a blood vessel. The administration of the test preparation at the background of heparin was started one hour after the thrombus formation.
# (§2) On the basis of an expected prolonged fibrinolytic effect of the preparation according to the present invention, a test dose of the preparation ranging from 400 to 4,000 units per kg of the bodyweight is dissolved in a physiological solution, 20-30 ml for rabbits and 50-100 ml for dogs, and injected by means of a syringe in a jet-like manner intravenously over 20 minutes, not following the instruction on the use of fibrinolysin (intravenously by the dropwise method at a rate of 10-12 drops per minute).
# (§3) The dynamics of the thrombus formation and lysis was observed visually and by palpation during 6 hours of the experiment, after one, two and three days. The angiography and fluorometry were carried out prior to the beginning of the treatment and one day after the administration of the preparation.
# [2] = system: thromboses of a dog's femoral vein or artery; test: Thrombolytic activity on model of thrombosis of dog's femoral vein (lysis of thrombus); format: in vivo; conditions: dogs, femoral vein, 600 units/kg i.v., n=3
# From the text: as §1, §2, §3
# [3] = system: euglobulin fraction of dog's plasma; test: Lysis duration of the euglobulin fraction of dog's plasma with experimental thrombosis; format: in vivo
# From the text: (§4) The prolonged effect of the fibrinolysin derivative according to the present invention has been studied in experiments on dogs in comparison with the effect of native fibrinolysin.
# Variation of lysis duration (in minutes) of the euglobulin
# fraction of dog's plasma with experimental thrombosis upon
# administration of the fibrinolysin derivative according to
# the present invention and native fibrinolysin
# thrombin time = test: Thrombin time in dogs with experimental thrombosis; format: in vivo, dog
# From the text: as §4
# Variation of thrombin time (in seconds) in dogs with expe-
# rimental thrombosis after administration of the fibrinolysin
# derivative according to the present invention and native
# Mice = test: Toxicity upon intravenous injection in mice; format: in vivo, white mice; conditions: i.v.
# From the text: (§5) The toxicity of the fibrinolysin derivative according to the present invention was studied on white mice, rats, rabbits and dogs.
# (§6) Toxicity of the fibrinolysin derivative of the invention
# (§7) for animals of different species upon intravenous injection
# Rats = test: Toxicity upon intravenous injection in rats; format: in vivo; conditions: i.v.
# From the text: as §5, §6, §7
# Rabbits = test: Toxicity upon intravenous injection in rabbits; format: in vivo; conditions: i.v.
# From the text: as §5, §6, §7
# Dogs = test: Toxicity upon intravenous injection in dogs; format: in vivo; conditions: i.v.
# From the text: as §5, §6, §7
# [4] = system: white mice, rats, rabbits and dogs; test: Toxicity, general findings in white mice, rats, rabbits and dogs; format: in vivo; conditions: for Death of animals: single i.v. dose exceeding the therapeutic dose by 4-5 times
# From the text: as §5
# blood coagulation = test: Blood coagulation and bleeding during therapy of experimental thrombosis; format: in vivo, rabbit; conditions: during treatment
# From the text: as §1, §2, §3
# experimental thrombosis = test: Duration of fibrinolytic effect and effective dose in experimental thrombosis; format: in vivo, rabbits, dogs
# From the text: as §1, §2, §3
# [5] = Solubility and hygroscopicity of the preparation; format: physicochemical
# [6] = prior-art product (Kardiologiya, 1977); cited from earlier work
# [7] = before administration (baseline)
molecule,measurement,setting,value
B1,Efficiency of the therapy (lysis of thrombus),"[1]; 400 units/kg i.v., n=7",full lysis
same,Efficiency of the therapy (lysis of thrombus),[1]; 600 units/kg i.v.,full lysis
same,Efficiency of the therapy (lysis of thrombus),[2],full lysis
same,Lysis duration of the euglobulin fraction,[3]; after 2 hours,90 min
same,Lysis duration of the euglobulin fraction,[3]; after 1 day,1 min
same,Lysis duration of the euglobulin fraction,[3]; after 2 days,10 min
same,"Lysis duration of the euglobulin fraction, initial parameter",[3]; [7],70 min
same,Thrombin time,thrombin time; after 2 hours,90 s
same,Thrombin time,thrombin time; after 1 day,92 s
same,Thrombin time,thrombin time; after 2 days,210 s
same,"Thrombin time, initial parameter",thrombin time; [7],35 s
same,LD50,Mice,5000 un./kg
same,"Toxicity test result (dead/survived, not defined)",Mice; 2000 un/kg,0/6
same,"Toxicity test result (dead/survived, not defined)",Mice; 2500 un/kg,0/6
same,"Toxicity test result (dead/survived, not defined)",Mice; 5000 un/kg,2/4
same,"Toxicity test result (dead/survived, not defined)",Mice; 6250 un/kg,6/0
same,LD50,Rats,4586 un./kg
same,"Toxicity test result (dead/survived, not defined)",Rats; 2000 un/kg,0/6
same,"Toxicity test result (dead/survived, not defined)",Rats; 2500 un/kg,0/6
same,"Toxicity test result (dead/survived, not defined)",Rats; 3750 un/kg,2/4
same,"Toxicity test result (dead/survived, not defined)",Rats; 5000 un/kg,3/3
same,"Toxicity test result (dead/survived, not defined)",Rats; 6250 un/kg,6/0
same,LD50,Rabbits,1834 un./kg
same,"Toxicity test result (dead/survived, not defined)",Rabbits; 500 un/kg,0/6
same,"Toxicity test result (dead/survived, not defined)",Rabbits; 1500 un/kg,2/4
same,"Toxicity test result (dead/survived, not defined)",Rabbits; 2000 un/kg,2/4
same,"Toxicity test result (dead/survived, not defined)",Rabbits; 2500 un/kg,6/0
same,"Toxicity test result (dead/survived, not defined)",Dogs; 500 un/kg,0/3
same,"Toxicity test result (dead/survived, not defined)",Dogs; 1000 un/kg,0/3
same,"Toxicity test result (dead/survived, not defined)",Dogs; 1500 un/kg,0/1
same,Toxicity,"[4]; compared with native fibrinolysin / overall statement, listed as fibrinolysin derivative according to the present invention",low toxicity
same,Effect on the vessels,[4]; in the test doses,no injuring effect on the vessels
same,Macro- and microscopic changes in the inner organs,[4]; in the test doses,no macro- and microscopic changes in the inner organs
same,Effect on the central nervous system and blood pressure,[4]; in therapeutical doses,no effect on the central nervous system and blood pressure
same,Death of animals,[4]; listed as fibrinolysin derivative according to the present invention,does not result in death of animals
same,Death of animals,[4]; listed as fibrinolysin derivative of the present invention,does not result in their death
same,Bleeding,blood coagulation,not accompanied by bleeding
same,Changes in the third phase of blood coagulation,blood coagulation,no sharp changes in the third phase of blood coagulation
same,Normalization of changes in the blood clotting system,experimental thrombosis; after administration,on the second day
same,Duration of the fibrinolytic effect,"experimental thrombosis; after administration, listed as fibrinolysin derivative according to the present invention",up to two days after administration; also recorded: observed also on the second day
same,Minimal effective (therapeutical) dose,experimental thrombosis; single intravenous jet-like infusion,400 units/kg
same,Prolongation of the effect as compared to native fibrinolysin,experimental thrombosis; vs native fibrinolysin,2-3 times
same,Solubility in 0.9% isotonic solution of sodium chloride,[5]; 0.9% sodium chloride,readily soluble
same,Solubility in 95% ethanol,[5]; 95% ethanol,substantially insoluble
same,Solubility in chloroform,[5]; chloroform,substantially insoluble
same,Solubility in ether,[5]; ether,substantially insoluble
same,Hygroscopicity,[5]; lyophilized powder,hygroscopic
same,Solubility in water,[5]; water,readily soluble
B2,Solubility in water and aqueous solutions,[6],not soluble
